The text below walks through data of the DeepSol protein solubility set.

This data set is described as follows: soluble on expression in E. coli; label from the status in PepcDB or PDB records.
In the case of “QSLVKDFLSGVFMLIEDQYGVGDTIDVGDVVGTVEDVSLRLTTLRDINGTQWFVRNGEILRVGNFSQEYAVAIINVPIALDEKASDAIALIEKSVADEAQLQEVADVLLDDPVVDGVNSVGLDHMVIRTRVTTLPDQQWFIERKMRARILTDLQRNGIDTPYPEGIGAYRRLDDEE”, the “soluble on expression in E. coli” value is on record as “not soluble”. In the case of “QTEVQKLTNAKAIITYLAEKFPLCFVLEGEAKPLKIGLFQDLAEALQDDERVSKTQLRQALRQYTSNWRYLYGCREGAVRVDLQGNPAGVLDAEHVAHAAQQLAEAKARFAEKRKQKLQLKKHNKKSIRVNLRIKTLKKRV” it was “not soluble”.

As to “QTGGSFFEPFNSYNSGTWEKADGYSNGGVFNCTWRANNVNFTNDGKLKLGLTSSAYNKFDCAEYRSTNIYGYGLYEVSMKPAKNTGIVSSFFTYTGPAHGTQWDEIDIEFLGKDTTKVQFNYYTNGVGGHEKVISLGFDASKGFHTYAFDWQPGYIKWYVDGVLKHTATANIPSTPGKIMMNLWNGTGVDDWLGSYNGANPLYAEYDWVKYTSN”, the “soluble on expression in E. coli” value was “soluble”.

“QTGGSFYEPFNNYNTGLWQKADGYSNGNMFNCTWRANNVSMTSLGEMRLSLTSPSYNKFDCGENRSVQTYGYGLYEVNMKPAKNVGIVSSFFTYTGPTDGTPWDEIDIEFLGKDTTKVQFNYYTNGVGNHEKIVNLGFDAANSYHTYAFDWQPNSIKWYVDGQLKHTATTQIPQTPGKIMMNLWNGAGVDEWLGSYNGVTPLYAHYNWVRYTKR”: the “soluble on expression in E. coli” value is recorded as “soluble”.

As for “QTPPRLVAIGGLSGSGKTTIAEALAAHVGAPPGARIVESDRIRKAMHGVPAETRLPDNAYRPDVSDRVYNEMTWRAGLILSEGGSVVADAVFDRPADRERIEKAARDRGIPFFGFWLEADPLVLWQRVSERKGGPSDATVDILSRQLQRKAG”, the “soluble on expression in E. coli” value was “not soluble”. As to “QTVARKCSLTGEWDNDLGSIMTIGAVNDNGEFDGTYITAVADNPGNITLSPLLGIQHKRASQPTFGFTVHWNFSESTSVFVGQCFVDRSGKEVLKTKWLQRLAVDDISDDWIATRVGNNDFTRQHTVEE”, the “soluble on expression in E. coli” value is “soluble”. The entry for “QVQLQESGGGLVQAGGSLRLSCTASRRTGSNWCMGWFRQLAGKEPELVVALNFDYDMTYYADSVKGRFTVSRDSGKNTVYLQMNSLKPEDTAIYYCAARSGGFSSNRELYDGWGQGTQVTVSS” is “soluble”. The entry for “QVQLQQSGAELMKPGASVKISCKATGYTFSSFWIEWVKQRPGHGLEWIGEILPGSGGTHYNEKFKGKATFTADKSSNTAYMQLSSLTSEDSAVYYCARGHSYYFYDGDYWGQGTSVTVSSASTKGPSVFPLAPSSKSTSGGTAALGCLVKDYFPEPVTVSWNSGALTSGVHTFPAVLQSSGLYSLSSVVTVPSSSLGTQTYICNVNHKPSNTKVDKKVEPK” is “soluble”; for “QVQLQQSGAELVKPGASVKMSCKASGYTFTTYPIEWMKQNHGKSLEWIGNFHPYSDDTNYNEKFKGKAKLTVEKSSSTVYLEFSRLTSDDSAVYYCAIHYGSAYAMDYWGQGTSVTVSS” it is “soluble”.

In the case of “QVQLQQSGPELVKPGALVKISCKASGYTFTNYDINWVKQRPGQGLEWIGWIYPGDGSTMYNEKFKGKATLTADKSSSTAYMQLSSLTSENSSVYFCARLDGNYGGWFAYWGQGTSVTVSSAKTTPPSVYPLAPVCGDTTGSSVTLGCLVKGYFPEPVTVTWNSGSLSSGVHTFPAVLQSDLYTLSSSVTVPSSTWPSETVTCNVAHPASSTKVDKKIVP”, the “soluble on expression in E. coli” value was “soluble”. The entry for “QVQLQQSGPGLVKPSQTLSLTCAISGDSVSSNSAAWNWIRQSPSRGLEWLGRTYYRSKWFNDYAVSVQSRITINPDTSKNQFSLQLNSVTPEDTAVYYCARGIVFSYAMDVWGQGTTVTVSSASTKGPSVFPLAPSSKSTSGGTAALGCLVKDYFPEPVTVSWNSGALTSGVHTFPAVLQSSGLYSLSSVVTVPSSSLGTQTYICNVNHKPSNTKVDKKVEPKSCAADEVDHHHHHH” is “soluble”; for “QVQLQQSGSELMKPGASVQISCKATGYTFSDYWIEWVKQRPGHGLEWIGDILCGTGRTRYNEKLKAMATFTADTSSNTAFMQLSSLTSEDSAVYYCARSASYGDYADYWGHGTTLTVSSAKTTPPSVYPLAPGCGDTTGSSVTLGCLVKGYFPESVTVTWNSGSLSSSVHTFPALLQSGLYTMSSSVTVPSSTWPSQTVTCSVAHPASSTTVDKKLEPS” it is “soluble”; for “QVQLVESGGGLVQPGGSLRLSCAASGFTFSSYAMSWFRQAPGKEREIVSAVSGSGGSTYYADSVRGRFTISRDNSKNTLYLQMNSLRAEDTAVYYCAREPRIPRPPSFDYWGQGTLVTVSS” it is “soluble”.

Consider “QVTLKESGPTLVKPTQTLTLTCTFSGFSLRTSRVGVSWIRQPPGKALEWLAHIYWDDDKRYNPSLKSRLTISKDTSKNQVVLTMTNMDPVDTATYYCARRGFYGRKYEVNHFDYWGQGTTVTVSSASTKGPSVFPLAPSSKSTSGGTAALGCLVKDYFPEPVTVSWNSGALTSGVHTFPAVLQSSGLYSLSSVVTVPSSSLGTQTYICNVNHKPSNTKVDKKVEPKSCG”, for which the “soluble on expression in E. coli” value was “soluble”. The entry for “RDFNNLTKGLCTINSWHIYGKDNAVRIGEDSDVLVTREPYVSCDPDECRFYALSQGTTIRGKHSNGTIHDRSQYRALISWPLSSPPTVYNSRVECIGWSSTSCHDGKTRMSICISGPNNNASAVIWYNRRPVTEINTWARNILRTQESECVCHNGVCPVVFTDGSATGPAETRIYYFKEGKILKWEPLAGTAKHIEECSCYGERAEITCTCRDNWQGSNRPVIRIDPVAMTHTSQYICSPVLTDNPRPNDPTVGKCNDPYPGNNNNGVKGFSYLDGVNTWLGRTISIASRSGYEMLKVPNALTDDKSKPTQGQTIVLNTDWSGYSGSFMDYWAEGECYRACFYVELIRGRPKEDKVWWTSNSIVSMCSSTEFLGQWDWPDGAKIEYFL” is “soluble”. The entry for “RDISVMVLLDLSESTNNQVNGQEFTVLDLTRQATVLLADAINRIGDPFAIHGFCSDGRHDVEYYRFKDFDQPYNEVPKMRLAGMTGQLSTRMGAAIRHASHFLKLQRAAKKLLLVITDGEPADVDVRDPQYLRFDTKKAVEEAGRSGILTYCMSLDPRADQYVSRIFGMRNYMVVDHVERLPEKLPMLYAGLTR” is “not soluble”. In the case of “RDTSVVVEHTSANPTGPVHVGRARNPIIGDAVARVLDYAGYDVDRHYYVNDAGRQIAVFTWAYETFDEDDLPEPERESPEYEMVRYYRKGNTILEDGDPDEVEAAEAEVQSILQGLEDGDEETYERVAEVVDTVLGGMQNTLGRLPAEFDEFVKETKFMRNGDTDDLVDRLKGLDCAVYEEDAWQLDLPDFEKNLVFLRSDGTSLYTTRDLAHHEWKFDTYDRAVTVLGEDHKLQADQLAAALELLDNDTDQLRQVFYSWVNLPEGGMSTREGTGIDLDDLLDEAIDRAREEVESRLDDRTRGDLDEDDIDRIARQVGIGAVRYDIVSKQPTKGITFEWDRALDFEAQSAPYVQYV”, the “soluble on expression in E. coli” value is listed as “not soluble”. In the case of “RFLSIKTSWEDYFLEDDPMIIKTEEFKSVFGNDNYAAVLTDCDNTFTKENLELIRRLSNEMLDSISYAEKITSLTDIEFMIGNEEGMAIEQIVPEEIPSDSAGLAEIRRKAFLKPYIADRLVSKDGTLTWILLKLNPFPSDSVWNKGKGAVAPEMVVGRELEHIIRKPEYAALHPKGAGMPYMTDRKMAWVNRE” it was “not soluble”; in that of “RKKPVSQSLEFPTRYSPYRPYRCVHQGCFAAFTIQQNLILHYQAVHKSDLPAFSAEVEEE”, “soluble”. In the case of “RLHSDNVYLIENNVFGTTCARVGCMPSKLLIAAAEARHHALHTDPFGVHLDKDSIVVNGEEVMQRVKSERDRFVGFVVADVEEWPADKRIMGSAKFIDEHTVQIDEHTQITAKSFVIATGSRPVILPQWQSLGNRLIINDDVFSWDTLPKRVAVFGPGVIGLELGQALHRLGVKVE” it was “not soluble”; in that of “RLSQRLIEPVSALKVQLDQHQGDTSQKFIVPEGSAKEFQTLASQLNEYRSQINQVIKREQAFARYASHELRTPLTVMKGSSSLLARSPSTPFQERQIGRIQDATQQMSTMVDALLGLVRYERNTDDSPVRTISEQELHNIVALSQAQADEKSLEFNVQILGHPQTKATTAVLNITLSNLIRNGIAATSAGTIHITMTDTTLSVKDEGEGFSSVPDAEGHGLGLMIVDDLCRRYGWQFTIDTHSEGGCEAVIDLSSEHHEACSEQLPQH”, “not soluble”; in that of “RMEIVKIPVVVHVVWNEEEENISDAQIQSQIDILNKDFRKLNSDVSQVPSVWSNLIADLGIEFFLATKDPNGNQTTGITRTQTSVTFFTTSDEVKFASSGGEDAWPADRYLNIWVCHVLKSEIGQDILGYAQFPGGPAETDGVVIVDAAFGTTGTALPPFDKGRTATHEIGHWLNLYHIWGDELRFEDPCSRSDEVDDTPNQADPNFGCPSYPHVSCSNGPNGDMFMNYLDYVDDKCMVMFTQGQATRVNACLDGPRSSFLA”, “soluble”. The entry for “RNLSGQSRTVGVEYVSANPTGPLHVGHGRAAAIGDCLARLLEANGWNVKREFYYNDAGVQIENLVRSVQARARGLKPGDALWPTDAYNGEYIADIAKAYLAGDSINMVDTIITSTKNVDDTAAIHHFAVNYLRNEQNHDLAAFNVDFDIYFLESSLYKDGKVEETVQKLINSGHTYEEGGALWLKSTHFGDDKDRVMRKSDGSYTYFVPDIAYHLSKWQRGYERAITELGADHHGSLARVHAGLQALEIGIPPGWPEYVLHQMVTVMRGGEEVKLSKRSGGYVTLRDLIEETSTDATRWFLIARKPDSQLTFDIDLARQKSNDNPVFYVQYAYARVCSLMHQAHE” is “not soluble”; for “RNVDAALFGMISLYAQTKVIDTIIYGSDAGSKASIITAHPDEIAGRIIRELDRSATILPGKGAYSGRETSVVLCTVRKSEFARLKRIIHETDENAFVMVTETTEVIGLGFKDFSDAVQ” it is “not soluble”.

Regarding “RPIGIYEKATPTHCTWLERLNFAKELGFDFVEMSIDERDERLARLDWSKEERLEVVKAIYETGVRIPSICFSGHRRYPLGSKDPVLEEKSLELMKKCIELAQDLGVRTIQLAGYDVYYEEKSPQTRQRFIKNLRKACDWAEEAQVVLAIEIMDDPFISSIEKYLAIEKEIDSPFLFVYPDIGNVSAWHNDIYSEFYLGHHAIAALHLKDTYAVTESSKGQFRDVPFGQGCVKWEEAFDILKETNYNGPFLIEMWSENCETVEETRAAIQEAQAFLYPLIKKAGLM”, the “soluble on expression in E. coli” value was “not soluble”. In the case of “RPLTGLVMTGGGARAAYQVGALSAIMAILDPKARPGYPNPFPIICGTSAGAVNAAALACRADRPHLAVRRMRRLWASLETGMVYRADAPGLIRTGVRWLGLLSLGWMYAGLTRKRPQSLLDSSPLADLLGRVMDFDRMRHNLARGKLSALAITASGYTSGEHLTFYQSDRPIDPWHRFLRRAVPSAIGIDHIMASSAIPFVFPARPVRVHGQVEWCGDGSMRQLAPISPAIHLGATRVLVIGTGFHDDTHPEKREEDPPYPSLAQVGGHALSSIFLDGLSMDVERLERTNFLLSRGGQEAEPEFALRRVDVLALTPSQSLDQLALEHLDDMPSEARTLFRV”, the “soluble on expression in E. coli” value was “not soluble”. In the case of “RPNKGAQQEDERIIQAFDKAIQYMSKRKIGALITIERNTGLDEYIETGIDLDADITGELLINIFIPNTPLHDGAVIIKNEKIAVASAYLPLSESNLIPKEFGTRHRAAVGISEVSDAITIVVSEETGDVSLTLNNELIPGL”, the “soluble on expression in E. coli” value is given as “not soluble”.
